In patent US12129308 (Merck KGaA, dated 2024):
Read-outs that look alike come from different tables or passages of the source.

Tests used:
Aggrecan = biological target: T1, Aggrecan; assay: competition ELISA (CAP) on Aggrecan; competitor not stated
T1 construct: also called CAP

activated human MMP13 [1] = biological target: T2, activated human MMP13 (human, UniProt P45452 104-471); assay: cell-based or functional assay
activated human MMP13 [2] = biological target: T2, activated human MMP13; assay: competition ELISA: dilution series of Nanobody against 0.6 nM biotinylated 40E09 (C0101040E09-biotin) on APMA-activated human full-length MMP13 captured via mouse anti-human MMP13 mAb MAB511
activated human MMP13 [3] = biological target: T2, activated human MMP13; assay: cell-based or functional assay; remark: listed apart in the source
activated human MMP13 [4] = biological target: T2, activated human MMP13; assay: cell-based or functional assay; remark: listed apart in the source
activated rat MMP13 [5] = biological target: T3, activated rat MMP13 (rat, UniProt P23097 99-466); assay: ELISA; activated MMP13 captured via mAb511, Nanobody detected with anti-FLAG-HRP
T3 construct: also called MMP13 R. norvegicus NP_598214.1
Protocol: (§1) After a washing step in PBS+0.05% Tween20, 20 nM activated human, rat or dog MMP13 were added for one hour at RT. After a second washing step, 10-fold dilutions of periplasmic extracts or dilution series of purified Nanobodies in PBS, 0.1% casein, 0.05% Tween 20 were added for one hour at RT. Bound Nanobodies were detected with mouse anti-FLAG-HRP (Sigma (A8592)).

activated dog MMP13 [6] = biological target: T4, activated dog MMP13 (dog, UniProt P45452 104-471 (human entry)); assay: as above
T4 construct: also called MMP13 C. lupus XP_536598.3
Protocol: as §1

activated human MMP13 [7] = biological target: T2, activated human MMP13; assay: as above
Protocol: as §1

[8] = biological target: T5, activated MMP13 (species not stated) (Homo sapiens (Human), UniProt P45452 104-471, Biotinylated in the TIMP-2 competition ELISA (sites not given). Activated form: pro-peptide removed.); assay: TIMP-2 competition ELISA; Nanobody pre-incubated with 1.26 nM activated MMP13-biotin, binding to captured TIMP-2
T5 construct: campaign 4 ELISA; Probably human

activated rat MMP13 [9] = biological target: T3, activated rat MMP13; assay: cell-based or functional assay
activated human MMP13 [10] = biological target: T2, activated human MMP13; assay: cell-based or functional assay; remark: listed apart in the source
[11] = biological target: T5, activated MMP13 (species not stated); assay: cell-based or functional assay
bovine MMP13 = bovine MMP13 (bovine, UniProt O77656 104-471); assay: cell-based or functional assay
activated rat MMP13 [12] = biological target: T3, activated rat MMP13; assay: cell-based or functional assay; remark: listed apart in the source
cynomolgus MMP13 = cynomolgus MMP13 (cynomolgus, UniProt A0A2K5U988 104-471); assay: cell-based or functional assay
activated dog MMP13 [13] = biological target: T4, activated dog MMP13; assay: cell-based or functional assay

B1: C010100729 (bispecific antibody)
chain: DVQLVESGGGLVQPGGSLRLSCAASGRTFSSYAMGWFRQAPGKEREFVAAISWSGGSTYYADSVKGRFTISRDNSKNTVYLQMNSLRPEDTAVYYCTAALAVYGPSRYRYGPVGEYQYWGQGTLVTVSSGGGGSGGGGSGGGGSGGGGSGGGGSGGGGSGGGGSEVQLVESGGGLVQPGGSLRLSCAASGSTFSRYSMNWYRQAPGKQREFVAGISVGRITNYAVSVKGRFTISRDNSKNTGYLQMNSLRPEDTAVYYCNAGGLQGYWGQGTLVTVSSGGGGSGGGGSGGGGSGGGGSGGGGSGGGGSGGGGSEVQLVESGGGLVQPGGSLRLSCAASGRTFSSYTMGWFRQAPGKEREFVAAISWSGGRTYYADSVKGRFTISRDNSKNTVYLQMNSLRPEDTAVYYCAAYRRRRASSNRGLWDYWGQGTLVTVSSA
notes: also called 517A01SO-40E09SO-604F02SO-A
Q: Which results are given for B1?
A: IC50 (Aggrecan): 21 nM; potency, human fluorogenic peptide assay (activated human MMP13 [1]): 0.541 nM

B2: C010100682 (bispecific antibody)
chain: EVQLVESGGGLVQPGGSLRLSCAASGSIFSINAMGWYRQAPGKQRELVAAISSGGSTYYADSVKGRFTISRDNSKNTVYLQMNSLRPEDTAVYYCNAAVDASRGLPYELYYYWGQGTLVTVSSGGGGSGGGGSGGGGSGGGGSGGGGSGGGGSGGGGSEVQLVESGGGLVQPGGSLRLSCAASGSTFIINVVRWYRRAPGKQRELVATISSGGNANYVDSVRGRFTISRDNSKNTVYLQMNSLRPEDTAVYYCNVPTTHYGGVYYGPYWGQGTLVTVSSGGGGSGGGGSGGGGSGGGGSGGGGSGGGGSGGGGSEVQLVESGGGLVQPGGSLRLSCAASGSTFIINVVRWYRRAPGKQRELVATISSGGNANYVDSVRGRFTISRDNSKNTVYLQMNSLRPEDTAVYYCNVPTTHYGGVYYGPYWGQGTLVTVSS
notes: MMP13-Aggrecan bispecific Nanobody construct; also called 529C12SO-114F08SO-114F08SO
Q: With B2 as the binder, how does the IC50 (Aggrecan) read?
A: 0.45 nM

Q: What about the “potency, human fluorogenic peptide assay” value (activated human MMP13 [1]) of the same binder?
A: 0.551 nM

B3: C0101PMP040E09 (VHH)
VHH: EVQLVESGGGSVQAGGSLRLSCAASGSTFSRYSMNWYRQAPGKQREFVAGISVGRITNYAVSVRGRFTISRDNAEGTGYLQMNSLKPEDTAVYYCNAGGLQGYWGLGTQVTVSS
notes: Profile 1 Nanobody; also called C0101040E09
Q: What does the source list for B3?
A: IC50 (read off the curve) (activated human MMP13 [2]): ~4 nM; IC50, human collagenolytic assay (activated human MMP13 [3]): 10.2 nM; IC50 (read off the curve); fluorogenic Collagen assay, partial inhibition [left graph] (activated human MMP13 [4]): ~20 nM; EC50 (activated rat MMP13 [5]): 0.44 nM; EC50 (activated dog MMP13 [6]): 0.38 nM; EC50 (activated human MMP13 [7]): 0.66 nM

B4: C0101PMP517A01 (VHH)
VHH: DVQLVESGGGLVQPGGSLRLSCAASGRTFSSYAMGWFRQAPGKEREFVAAISWSGGSTYYADSVKGRFTISRDNSKNTVYLQMNSLRPEDTAVYYCTAALAVYGPNRYRYGPVGEYNYWGQGTLVTVSS
notes: Profile 2 Nanobody; also called C0101517A01; C010100087 (parental)
Q: What does the source list for B4?
A: IC50 [8]: 2.6 nM; IC50, (adapted) rat fluorogenic peptide assay (activated rat MMP13 [9]): 2.64 nM; IC50, human fluorogenic collagen assay (activated human MMP13 [10]): 10.8 nM; IC50, fluorogenic peptide assay [11]: 2.5 nM; IC50, bovine fluorogenic peptide assay (bovine MMP13): 6.4 nM; IC50, rat fluorogenic peptide assay (activated rat MMP13 [12]): 2.1 nM; IC50, cyno fluorogenic peptide assay (cynomolgus MMP13): 3 nM; IC50, dog fluorogenic peptide assay (activated dog MMP13 [13]): 3.4 nM; IC50, human collagenolytic assay (activated human MMP13 [3]): 2.3 nM; IC50, human fluorogenic collagen assay (activated human MMP13 [3]): 10.9 nM; IC50, human fluorogenic peptide assay (activated human MMP13 [3]): 4.6 nM

B5: C010100702 (bispecific antibody)
chain: EVQLVESGGGLVQPGGSLRLSCAASGRTFSSYAMGWFRQAPGKEREFVAAISWSGGSTYYADSVKGRFTISRDNSKNTVYLQMNSLRPEDTAVYYCTAALAVYGPSRYRYGPVGEYQYWGQGTLVTVSSGGGGSGGGGSGGGGSGGGGSGGGGSGGGGSGGGGSEVQLVESGGGSVQPGGSLRLSCAASGSTFSRYSMNWYRQAPGKQREFVAGISVGRITNYAVSVRGRFTISRDNSEGTGYLQMNSLRPEDTAVYYCNAGGLQGYWGLGTLVTVSSGGGGSGGGGSGGGGSGGGGSGGGGSGGGGSGGGGSEVQLVESGGGLVQPGGSLRLSCAASGSTFIINVVRWYRRAPGKQRELVATISSGGNANYVDSVRGRFTISRDNSKNTVYLQMNSLRPEDTAVYYCNVPTTHYGGVYYGPYWGQGTLVTVSSGGGGSGGGGSGGGGSGGGGSGGGGSGGGGSGGGGSEVQLVESGGGLVQPGGSLRLSCAASGSTFIINVVRWYRRAPGKQRELVATISSGGNANYVDSVRGRFTISRDNSKNTVYLQMNSLRPEDTAVYYCNVPTTHYGGVYYGPYWGQGTLVTVSS
notes: also called 517A01SO-40E09SOvar-114F08SO-114F08SO
Q: Which IC50 (Aggrecan) does the source give for B5 here?
A: 0.12 nM

Q: And the “potency, human fluorogenic peptide assay” value (activated human MMP13 [1])?
A: 0.0771 nM

B6: C010100724 (bispecific antibody)
chain: DVQLVESGGGLVQPGGSLRLSCAASGSIFSINAMGWYRQAPGKQRELVAAISSGGSTYYADSVKGRFTISRDNSKNTVYLQMNSLRPEDTAVYYCNAAVDASRGLPYELYYYWGQGTLVTVSSGGGGSGGGGSGGGGSGGGGSGGGGSGGGGSGGGGSEVQLVESGGGLVQPGGSLRLSCAASGRTFSSYTMGWFRQAPGKEREFVAAISWSGGRTYYADSVKGRFTISRDNSKNTVYLQMNSLRPEDTAVYYCAAYRRRRASSNRGLWDYWGQGTLVTVSSA
notes: MMP13-Aggrecan bispecific Nanobody construct; also called 529C12SO-604F02SO-A
Q: For B6, which IC50 (Aggrecan) is on record?
A: 32 nM

Q: What about the “potency, human fluorogenic peptide assay” value (activated human MMP13 [1]) of the same binder?
A: 0.697 nM
